Reference: patent publication CN115028722A (BIOCELLS BEIJING BIOTECH CO LTD, dated 2022)

What was measured:
[1] = biological target: T1, 包含有His标签的重组人源TSLP蛋白(rhTSLP-His) (human); assay: ELISA as in Example 6, rhTSLP-His coated
T1 construct: also called rhTSLP-His重组蛋白; rhTSLP-His蛋白

[2] = biological target: T1, 包含有His标签的重组人源TSLP蛋白(rhTSLP-His); assay: cell ELISA: antibody blocks binding of rhTSLP-His to hTSLPR/hIL-7Rα-293T/17 cells
[3] = biological target: T1, 包含有His标签的重组人源TSLP蛋白(rhTSLP-His); assay: ELISA, rhTSLP-His coated at 100 ng/well
[4] = biological target: T1, 包含有His标签的重组人源TSLP蛋白(rhTSLP-His); assay: cell ELISA: antibody blocks binding of 100 ng rhTSLP-His to hTSLPR/hIL-7Rα-293T/17 cells

Binder	EC50 [1] [nM]	IC50 [2] [µg/mL]	EC50 [3] [nM]	IC50 [4] [µg/mL]
抗TSLP人源化单克隆抗体M432-69H13L (antibody, human IgG2, lambda, V domains shown) VH: EVQLVQSGAEVKKPGATVKISCCASAYSFTTYWMHWVQQAPGKGLEWMGLIDPSDSETTLNQKFKDRVTLTVDKSTDTAYMELSSLRSEDTAVYYCARSLDGYFDYWGQGTTVTVSS VL: DIQLTQSPSSLSASVGDRVTITCRAGENIYSYLAWYQQKPGKAPKLLVYNAKILAEGVPSRFSGSGSGTDFTLTISSLQPEDFATYYCQHHYDTPWTFGGGTKLTVLG	4.05	4.35		
抗TSLP人源化单克隆抗体5F10-69H13L (antibody, human IgG2, lambda, V domains shown) VH: EVQLVQSGAEVKKPGATVKISCCASGYSFTSYWMHWVQQAPGKGLEWMGLIDPTDSEISLSQKFKDRVTLTVDKSTDTAYMELSSLRSEDTAVYYCARSLDGFFDQWGQGTTVTVSS VL: DIQLTQSPSSLSASVGDRVTITCRAGENIYSYLAWYQQKPGKAPKLLVYNAKILAEGVPSRFSGSGSGTDFTLTISSLQPEDFATYYCQHHYDTPWTFGGGTKLTVLG	31.6	7.57		
抗TSLP人源化单克隆抗体9F8-46H13L (antibody, human IgG2, lambda, V domains shown) VH: QVQLVQSGAEVKKPGASVKVSCCASGYSFTTYWMHWVRQAPGQGLEWMGIIDPSDSETTLNQKFKDRVTLTVDKSTSTAYMELSSLRSEDTAVYYCTRSLDGYFDYWGQGTTVTVSS VL: DIQLTQSPSSLSASVGDRVTITCRAGENIYSYLAWYQQKPGKAPKLLVYNAKILAEGVPSRFSGSGSGTDFTLTISSLQPEDFATYYCQHHYDTPWTFGGGTKLTVLG	9.52	4.05		
Tezepelumab(安进和阿斯利康合作开发抗体) (antibody, V domains shown) VH: QMQLVESGGGVVQPGRSLRLSCAASGFTFRTYGMHWVRQAPGKGLEWVAVIWYDGSNKHYADSVKGRFTITRDNSKNTLNLQMNSLRAEDTAVYYCARAPQWELVHEAFDIWGQGTMVTVSS VL: SYVLTQPPSVSVAPGQTARITCGGNNLGSKSVHWYQQKPGQAPVLVVYDDSDRPSWIPERFSGSNSGNTATLTISRGEAGDEADYYCQVWDSSSDHVVFGGGTKLTVLG	1.8	8.93	2.93	6.22
鼠源抗TSLP单克隆抗体5F10-2-25 (antibody, V domains shown, Mouse hybridoma monoclonal antibody) VH: ELQQSGPQLVRPGASVKISCKASGYSFTSYWMHWVKQRPGQGLEWIGLIDPTDSEISLSQKFKDKATLTVDKLSSTAHMQLSSPTSEDSAVYYCARSLDGFFDQWGQGTTVTV VL: DIDLTQSPASLSASVGETVTITCRTSENIYSYLAWYQQKQGKSPQLLVYNAKSLAEGVPSRFSGSGSGTQFSLKINSLQPEDFGSYYCQHHYDTPWTFGGGTKLENKT			12.4	13.4
鼠源抗TSLP单克隆抗体10D9-M-432 (antibody, V domains shown, Mouse hybridoma monoclonal antibody) VH: VNCKESGPQLVRPGASVKISCKASAYSFTTYWMHWVKQRPGQGLEWIGLIDPSDSETTLNQKFKDKATLTVDKSSSTAYMQLTSPTSEDSAVYYCARSLDGYFDYWGQGTTVTVSS VL: DIDLTQSPASLSASVGETVTITCRAGENIYSYLAWYQQKQGKSPQLLVYNAKILAESVPSRFSGSGSGTQFSLKINSLQPEDFGIYSCQHHYDTPWTFGGGTKLE			8.16	12
鼠源抗TSLP单克隆抗体9F8-1-25 (antibody, V domains shown, Mouse hybridoma monoclonal antibody) VH: VQLQQSGPQLVRPGASVKISCKASGYSFTTYWMHWVKQRPGQGLEWIGIIDPSDSETTLNQKFKDKATLTVDKSSSTAYIQLSSPTSEDSAVYYCTRSLDGYFDYWGQGTTVTV VL: DIDLTQSPASLSASVGETVTITCRAGENIYSYLAWYQQKQGKSPQLLVYNAKILAESVPSRFSGSGSGTQFSLKINSLQPEDFGIYSCQHHYDTPWTFGGGTKLE			11.4	10.7
